This data set relates to Escherichia coli TOP10. Put plainly: shrunken log2 fold change of peptide-encoding DNA abundance (4.5 h post-induction vs induction); higher = less antimicrobial activity (less host growth inhibition). The conditions noted are these: time post-induction: 4.5 h; library: site-saturation at positions 5, 18, 19, 20.
As to RRIRVRPPRLPRPRPRPHDAPRP, the “shrunken log2 fold change” value is -0.141.

RRIRFRPPRLPRPRPRPRHYPRP: the “shrunken log2 fold change” value was -0.477.

Regarding RRIRVRPPRLPRPRPRPLTHPRP, the “shrunken log2 fold change” value was -0.439.

On to RRIRSRPPRLPRPRPRPSNVPRP, for which the “shrunken log2 fold change” value is -0.47.

For RRIRRRPPRLPRPRPRPGKIPRP, the “shrunken log2 fold change” value is 0.343.

In the case of RRIRVRPPRLPRPRPRPCVDPRP, the “shrunken log2 fold change” value is -0.0658.

On to RRIRIRPPRLPRPRPRPSDYPRP, for which the “shrunken log2 fold change” value is -0.385.

In the case of RRIRCRPPRLPRPRPRPPESPRP, the “shrunken log2 fold change” value was found to be 0.347.

RRIRYRPPRLPRPRPRPLMNPRP: the “shrunken log2 fold change” value was -0.217.

Consider RRIRFRPPRLPRPRPRPQYIPRP, for which the “shrunken log2 fold change” value is -0.0295.

Consider RRIRNRPPRLPRPRPRPVKEPRP, for which the “shrunken log2 fold change” value is -0.0182.

Take RRIRWRPPRLPRPRPRPNNHPRP: the “shrunken log2 fold change” value is -0.588.

As for RRIRHRPPRLPRPRPRPSHMPRP, the “shrunken log2 fold change” value was -0.856.

RRIRRRPPRLPRPRPRPPNMPRP: the “shrunken log2 fold change” value amounted to 0.402.

As for RRIRSRPPRLPRPRPRPHATPRP, the “shrunken log2 fold change” value is 0.378.

In the case of RRIRMRPPRLPRPRPRPRYQPRP, the “shrunken log2 fold change” value was -0.0321.

For RRIRNRPPRLPRPRPRPKTAPRP, the “shrunken log2 fold change” value is -0.232.

Consider RRIRYRPPRLPRPRPRPITCPRP, for which the “shrunken log2 fold change” value was 0.014.

On to RRIRVRPPRLPRPRPRPGEWPRP, for which the “shrunken log2 fold change” value is -0.00804.

In the case of RRIRRRPPRLPRPRPRPRKSPRP, the “shrunken log2 fold change” value was found to be 0.339.

For RRIRARPPRLPRPRPRPFKIPRP, the “shrunken log2 fold change” value is -0.0575.

RRIRCRPPRLPRPRPRPRPIPRP: the “shrunken log2 fold change” value is 0.266.

With RRIRQRPPRLPRPRPRPESHPRP, the “shrunken log2 fold change” value is -0.159.

RRIRMRPPRLPRPRPRPKNRPRP: the “shrunken log2 fold change” value is 0.375.

In the case of RRIRGRPPRLPRPRPRPAADPRP, the “shrunken log2 fold change” value came out at 2.21.

Regarding RRIRLRPPRLPRPRPRPWDCPRP, the “shrunken log2 fold change” value was -0.0998.

As to RRIRARPPRLPRPRPRPQFGPRP, the “shrunken log2 fold change” value was -0.217.

Turning to RRIRQRPPRLPRPRPRPGKPPRP, the “shrunken log2 fold change” value was determined as 0.12.

For the sequence RRIRNRPPRLPRPRPRPCLYPRP, the “shrunken log2 fold change” value came out at 0.0767.

Regarding RRIRIRPPRLPRPRPRPRAEPRP, the “shrunken log2 fold change” value is -0.202.

For RRIRTRPPRLPRPRPRPRTDPRP, the “shrunken log2 fold change” value was -0.0849.

As for RRIRYRPPRLPRPRPRPWFCPRP, the “shrunken log2 fold change” value is -0.0679.

RRIRWRPPRLPRPRPRPATQPRP: the “shrunken log2 fold change” value was 0.105.

For the sequence RRIRKRPPRLPRPRPRPRDPPRP, the “shrunken log2 fold change” value was 1.06.

For the sequence RRIRFRPPRLPRPRPRPWLEPRP, the “shrunken log2 fold change” value was found to be 0.0931.

With RRIRQRPPRLPRPRPRPIQDPRP, the “shrunken log2 fold change” value came to 0.0208.

Take RRIRRRPPRLPRPRPRPCQLPRP: the “shrunken log2 fold change” value is -0.231.

On to RRIRYRPPRLPRPRPRPNAGPRP, for which the “shrunken log2 fold change” value is -0.31.

RRIRRRPPRLPRPRPRPKGNPRP: the “shrunken log2 fold change” value is 0.0579.

In the case of RRIRARPPRLPRPRPRPLNMPRP, the “shrunken log2 fold change” value is -0.502.

In the case of RRIRHRPPRLPRPRPRPEPCPRP, the “shrunken log2 fold change” value is 0.0696.

RRIRKRPPRLPRPRPRPRARPRP: the “shrunken log2 fold change” value came out at 0.776.

As to RRIRPRPPRLPRPRPRPFECPRP, the “shrunken log2 fold change” value was -0.242.

For RRIRFRPPRLPRPRPRPQYAPRP, the “shrunken log2 fold change” value was -0.862.

For the sequence RRIRGRPPRLPRPRPRPKYKPRP, the “shrunken log2 fold change” value stood at 0.0104.

As to RRIRCRPPRLPRPRPRPEHQPRP, the “shrunken log2 fold change” value is 0.0614.

For RRIRHRPPRLPRPRPRPRCVPRP, the “shrunken log2 fold change” value was determined as 0.548.

As to RRIRGRPPRLPRPRPRPQHAPRP, the “shrunken log2 fold change” value is 0.797.

For RRIRIRPPRLPRPRPRPTCRPRP, the “shrunken log2 fold change” value is -0.103.

Take RRIRRRPPRLPRPRPRPPDKPRP: the “shrunken log2 fold change” value stood at 0.303.

The record behind these values is the supplement of paper PMC9112550, “Optimization of the antimicrobial peptide Bac7 by deep mutational scanning” (BMC Biology, 2022).
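Note: peptides expressed intracellularly from a pBAD plasmid library in pooled LB shake-flask culture, induced with 0.3% L-arabinose, DNA abundance read by NGS, three biological replicates, DESeq2 with apeglm shrinkage.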
